The values below are quoted from earlier work in publication PMC4132707.

In data set [1] the target is H1K26me3 peptide (Homo sapiens) (UniProt P10412).
Data set [2] deals with H3K27me3 peptide (Homo sapiens) (UniProt P68431).

Sequence of EED (O75530 2-441): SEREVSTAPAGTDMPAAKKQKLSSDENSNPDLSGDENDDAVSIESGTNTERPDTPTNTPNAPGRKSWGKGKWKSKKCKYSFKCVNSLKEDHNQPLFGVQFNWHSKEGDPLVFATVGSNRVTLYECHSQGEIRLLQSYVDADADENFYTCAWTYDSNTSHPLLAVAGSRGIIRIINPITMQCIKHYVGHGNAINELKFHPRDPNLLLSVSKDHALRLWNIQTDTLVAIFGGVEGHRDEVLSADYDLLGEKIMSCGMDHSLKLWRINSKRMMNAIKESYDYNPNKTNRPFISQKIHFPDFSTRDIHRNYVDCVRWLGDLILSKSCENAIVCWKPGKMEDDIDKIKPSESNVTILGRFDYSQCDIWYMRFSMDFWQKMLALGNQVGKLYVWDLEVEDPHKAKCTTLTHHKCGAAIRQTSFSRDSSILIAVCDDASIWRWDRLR
Sequence of H1K26me3 peptide (Homo sapiens) (P10412 2-219): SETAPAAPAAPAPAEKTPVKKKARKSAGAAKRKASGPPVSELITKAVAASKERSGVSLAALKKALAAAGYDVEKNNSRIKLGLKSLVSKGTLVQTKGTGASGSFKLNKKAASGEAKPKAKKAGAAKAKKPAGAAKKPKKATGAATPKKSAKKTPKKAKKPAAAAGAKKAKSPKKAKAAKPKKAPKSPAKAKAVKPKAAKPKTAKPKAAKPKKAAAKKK

Take EED (from UniProt O75530): the Kd in data set [1] and in data set [2] was above 20 µM in each case.
